What was measured:
[1] = target: T1, recombinant mouse VEGF-R2-Fc (R&D Systems cat#443-KD) (mouse, UniProt P35918 20-762); test: competition ELISA: antibody on coated mVEGFR2-Fc against mVEGF164 (Example 1.25)
T1 construct: Bought reagent; also called mVEGFR2-Fc; mVEGF-R2; not shown: Fc part of the bought fusion protein

[2] = target: T2, recombinant human VEGF-R2-Fc (R&D Systems cat#357-KD) (human, UniProt P35968 20-764); test: competition ELISA: antibody on coated hVEGFR2-Fc against biotinylated hVEGF165 (Example 1.23)
T2 construct: Bought reagent; also called hVEGFR2-Fc; hVEGF-R2 (KDR/Flk-1); not shown: Fc part of the bought fusion protein
Method: (§1) To identify molecules which could block the binding of VEGF-R2 (KDR/Flk-1) to hVEGF₁₆₅, a competition ELISA was performed. […] Plates were then washed four times with wash buffer (TBS, 0.05% Tween-20) and blocked with Superblock blocking buffer (Thermo Scientific, cat#37535). […] The samples were added to wells and incubated for 30 minutes at 25° C. with shaking. […] Following incubation, plates were washed four times with wash buffer. Streptavidin-polyHRP-40 (Fitzgerald cat#65r-s104phrp) was diluted in assay diluent (10% Superblock containing 0.05% surfactamps) and added to plates (50 μL) for 45 minutes at 25° C. with shaking. Plates were washed four times with wash buffer and developed with the addition of Enhanced K-blue TMB substrate (Neogen cat#308177). The reaction was stopped with 2N sulfuric acid (VWR, cat# BDH3500-1) and the absorbance was read at 450 nm-570 nm. A decrease in observed optical density indicates the test molecule is blocking the human VEGF-R2-Fc binding to hVEGF₁₆₅. Data was analyzed using Softmax Pro 4.8 software and IC₅₀ values calculated using a sigmoidal dose response (variable slope) fit in GraphPad Prism 5.

[3] = target: T3, recombinant human VEGF-R2-Fc (human, UniProt P35968 20-764); test: competition ELISA: antibody added to coated hVEGF-R2-Fc, then biotin-hVEGF165
T3 construct: also called hVEGFR2-Fc; KDR/Flk-1; not shown: Fc part of the bought fusion protein
Method: as §1

[4] = target: T4, recombinant human PDGF-Rβ-Fc (R&D Systems #385-PR) (human, UniProt P09619 33-530); test: direct ELISA on coated recombinant human PDGF-Rβ-Fc (Example 1.26)
T4 construct: Bought reagent; also called hPDGFRβ-Fc; huPDGF Rβ; not shown: Fc part of the bought fusion protein
Method: Plates were then washed four times with wash buffer (TBS, 0.05% Tween-20) and blocked with Superblock blocking buffer (Thermo Scientific, cat#37535). During the blocking step, supernatants, antibodies and benchmark compounds were diluted in assay diluent (10% Superblock containing 0.05% surfactamps) and an eight point titration of each sample molecule was performed. […] Following incubation, plates were washed four times with wash buffer. […] Plates were washed four times with wash buffer and developed with the addition of Enhanced K-blue TMB substrate (Neogen, cat#308177). The reaction was stopped with 2N sulfuric acid (VWR, cat# BDH3500-1) and the absorbance was read at 450 nm-570 nm. […] Data was analyzed using Softmax Pro 4.8 software and IC₅₀ values calculated using a sigmoidal dose response (variable slope) fit in GraphPad Prism 5.

mouse VEGF (PR-1578904) = target: T5, mouse VEGF (PR-1578904) (mouse, UniProt Q00731 205-392); test: SPR (Biacore), mAb captured by anti-human Fc, antigen injected
T5 construct: also called mVEGF164
T5 chain: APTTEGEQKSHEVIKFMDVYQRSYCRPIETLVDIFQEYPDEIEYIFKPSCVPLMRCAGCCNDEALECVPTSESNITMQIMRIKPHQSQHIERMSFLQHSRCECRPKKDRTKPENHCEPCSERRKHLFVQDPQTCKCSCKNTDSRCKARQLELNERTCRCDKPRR
Method: Unreacted moieties on the biosensor surface were blocked with ethanolamine. For kinetic analysis, rate equations derived from the 1:1 Langmuir binding model were fitted simultaneously to multiple antigen injections (using global fit analysis) with the use of Scrubber 2 (BioLogic Software), Biacore Biaevaluation 4.0.1 software or Biacore T100 Evaluation software. Purified antibodies or DVD-Ig molecules were diluted in running buffer for capture across goat anti-human Fc reaction surfaces. Antibodies or DVD-Ig molecules to be captured as a ligand (1 μg/ml) were injected over reaction matrices at a flow rate of 10 μl/minute. During the assay, all measurements were referenced against the capture surface alone (i.e., with no captured antibody or DVD-Ig molecule). […] The equilibrium dissociation constant KD (M) of the reaction between antibodies and the target antigen was then calculated from the kinetic rate constants by the following formula: KD=Koff/Kₒₙ. Binding was recorded as a function of time and kinetic rate constants were calculated. In this assay, on-rates as fast as 10⁶M⁻¹s⁻¹ and off-rates as slow as 10⁻⁶ s⁻¹ could be measured.

T1 sequence (P35918 20-762 limits assumed): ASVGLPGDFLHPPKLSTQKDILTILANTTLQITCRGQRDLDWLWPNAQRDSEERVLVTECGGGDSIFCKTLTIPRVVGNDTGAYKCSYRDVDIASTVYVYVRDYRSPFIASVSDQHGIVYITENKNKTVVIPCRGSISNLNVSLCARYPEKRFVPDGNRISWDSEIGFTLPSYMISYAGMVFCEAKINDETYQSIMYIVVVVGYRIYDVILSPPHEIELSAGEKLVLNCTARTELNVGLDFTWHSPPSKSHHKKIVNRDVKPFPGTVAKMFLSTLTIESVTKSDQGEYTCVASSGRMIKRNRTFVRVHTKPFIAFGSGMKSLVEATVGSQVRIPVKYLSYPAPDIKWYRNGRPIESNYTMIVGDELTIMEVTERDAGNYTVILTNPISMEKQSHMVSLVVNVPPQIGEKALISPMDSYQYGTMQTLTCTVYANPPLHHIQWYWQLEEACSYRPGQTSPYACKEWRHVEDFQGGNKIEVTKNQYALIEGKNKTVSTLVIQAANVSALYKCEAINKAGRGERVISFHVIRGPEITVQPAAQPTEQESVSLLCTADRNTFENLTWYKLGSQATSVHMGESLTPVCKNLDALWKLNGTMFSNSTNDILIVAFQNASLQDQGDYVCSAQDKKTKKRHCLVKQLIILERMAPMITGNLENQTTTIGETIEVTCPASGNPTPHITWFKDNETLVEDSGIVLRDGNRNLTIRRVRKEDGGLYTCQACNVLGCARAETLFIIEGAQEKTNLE
T2 sequence (P35968 20-764 limits assumed): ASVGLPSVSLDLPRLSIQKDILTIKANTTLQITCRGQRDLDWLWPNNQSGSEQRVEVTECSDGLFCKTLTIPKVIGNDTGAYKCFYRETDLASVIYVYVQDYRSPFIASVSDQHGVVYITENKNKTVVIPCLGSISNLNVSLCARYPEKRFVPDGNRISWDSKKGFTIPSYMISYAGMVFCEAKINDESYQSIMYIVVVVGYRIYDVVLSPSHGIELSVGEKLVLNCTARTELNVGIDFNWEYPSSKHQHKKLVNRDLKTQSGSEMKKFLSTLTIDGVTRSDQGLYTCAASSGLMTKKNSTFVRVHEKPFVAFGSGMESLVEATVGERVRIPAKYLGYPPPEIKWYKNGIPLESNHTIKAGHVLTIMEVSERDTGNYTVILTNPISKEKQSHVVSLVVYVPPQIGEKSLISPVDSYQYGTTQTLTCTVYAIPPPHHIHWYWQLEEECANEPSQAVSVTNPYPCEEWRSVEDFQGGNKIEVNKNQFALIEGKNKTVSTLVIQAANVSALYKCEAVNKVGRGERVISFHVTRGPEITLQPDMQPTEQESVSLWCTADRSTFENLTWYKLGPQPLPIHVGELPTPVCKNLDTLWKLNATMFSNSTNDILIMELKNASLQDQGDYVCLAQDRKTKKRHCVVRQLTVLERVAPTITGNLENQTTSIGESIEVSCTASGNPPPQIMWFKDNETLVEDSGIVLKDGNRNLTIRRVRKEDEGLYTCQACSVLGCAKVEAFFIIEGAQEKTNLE
T3 sequence (P35968 20-764 limits assumed): as above
T4 sequence (P09619 33-530 limits assumed): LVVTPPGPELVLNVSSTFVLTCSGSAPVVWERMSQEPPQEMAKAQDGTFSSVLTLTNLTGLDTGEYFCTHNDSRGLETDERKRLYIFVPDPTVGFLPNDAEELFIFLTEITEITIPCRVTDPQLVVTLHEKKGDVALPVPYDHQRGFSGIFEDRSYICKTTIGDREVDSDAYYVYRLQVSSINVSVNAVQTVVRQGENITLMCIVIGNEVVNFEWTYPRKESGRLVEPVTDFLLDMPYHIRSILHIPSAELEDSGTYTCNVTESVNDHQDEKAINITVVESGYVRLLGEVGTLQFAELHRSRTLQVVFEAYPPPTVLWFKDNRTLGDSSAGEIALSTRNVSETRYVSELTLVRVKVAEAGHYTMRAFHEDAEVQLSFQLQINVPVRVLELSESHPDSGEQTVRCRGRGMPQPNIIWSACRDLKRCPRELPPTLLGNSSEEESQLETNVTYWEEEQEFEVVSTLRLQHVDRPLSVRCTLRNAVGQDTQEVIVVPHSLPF

B1: BCU-6B1-G6 (antibody, V domains shown)
VH: QIQLVQSGPELKKPGESVKISCKASGYTFTNYGMYWVKQAPGQALQFMGWINTETGQPTYADDFKGRFVFFLETSASTAYLQINNLKNEDMATYFCARLGNNYGIWFAYWGQGTLVTVSS
VL: DIQMTQSPASLSASLGETVTIECRASDDLYSTLAWYQQKPGDSPQLLIFDANRLAAGVPSRFSGSGSGTQYSLKINSLQSEDVASYFCQQYNKFPWTFGGGTKLELK
notes: Rat hybridoma anti-human VEGFR II monoclonal antibody, isotype IgG2a/κ
[1]
  IC50: 1.35 nM
[2]
  IC50: 4.85 nM

B2: chBCU-6B1-G6 (antibody, V domains shown)
VH: B1 VH
VL: B1 VL
notes: also called chimeric BCU-6B1-G6
[3]
  IC50: 0.498 nM

B3: BDE-8H6-F7 (antibody, V domains shown)
VH: EVQLVESGGGLVQPGSSLKLSCLASGFTFSNYNMYWIRQAPKKGLEWIALIFYDNNNKYYADSVKGRFTISRDNSKNTLYLEMNSLRSEDTAMYYCLRDSGPFSYWGQGTLVTVSS
VL: DIQMTQSPPSLSASLGDKVTINCQAGQNIKKYIAWYQQEPGKVPRLLIRYTSKLESDTPSRFSGSGSGRDYSFSISNVESEDIASYYCLQYDNLPWTFGGGTKLELK
notes: Rat hybridoma anti-human PDGFR-B monoclonal antibody
[4]
  binding result: binds

B4: AB014 (Avastin), PR-1545939 (antibody, V domains shown)
VH: EVQLVESGGGLVQPGGSLRLSCAASGYTFTNYGMNWVRQAPGKGLEWVGWINTYTGEPTYAADFKRRFTFSLDTSKSTAYLQMNSLRAEDTAVYYCAKYPHYYGSSHWYFDVWGQGTLVTVSS
VL: DIQMTQSPSSLSASVGDRVTITCSASQDISNYLNWYQQKPGKAPKVLIYFTSSLHSGVPSRFSGSGSGTDFTLTISSLQPEDFATYYCQQYSTVPWTFGQGTKVEIK
notes: Anti-VEGF-A mAb
Mouse VEGF (PR-1578904)
  binding result: no binding

— patent publication US20170015742A1 (published 2017)
